± gives the standard deviation of the averaged measurements.
B1: library; a variant is named by its letters at N, in order (parent)
chain: ACATTTGTTGATACAACCATAAAATGATAATTACACCCATAAATTGATAATTATCACACCCANNNNNNNNNNNNNNCTCTGATCATAGTCAGACCAACATTGCTACGACCCGTATTCGCACCGACAC

Columns and labels:
[1] = variants of: B1; assay: relative integration efficiency (T-RL orientation) vs wild-type transposon end (log2 (normalized fold change)); transposon end mutated: right end (5 bp flank + 75 bp right end); higher = more efficient transposition; settings: with VchCAST RNA-guided transposition machinery (E. coli BL21(DE3) host, lacZ target)
Experimental: (§1)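 Pooled, barcoded VchCAST (Tn6677) mini-transposon donor libraries; each variable transposon-end sequence sits in a fixed pDonor mini-transposon context (10-bp barcode and cargo not included). Left- or right-end libraries were co-transformed with pEffector (TniQ-Cascade, TnsABC, lacZ crRNA, T7, 0.1 mM IPTG) into E. coli BL21(DE3) and grown 18 h at 37 C. T-LR and T-RL junction amplicons were sequenced; output/input barcode fold change was normalised to the mean of four wild-type barcodes and log2-transformed. Two biological replicates; zero-count/undetected variants carry floor values (-10 / -15), censored here. Barcode uncoupling by PCR recombination adds noise.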

[2] = variants of: B1; assay: relative integration efficiency (T-LR orientation) vs wild-type transposon end (log2 (normalized fold change)); transposon end mutated: right end (5 bp flank + 75 bp right end); higher = more efficient transposition; settings: with VchCAST RNA-guided transposition machinery (E. coli BL21(DE3) host, lacZ target)
Experimental: as §1

| Variant | relative integration efficiency (log2) [1] | relative integration efficiency (log2) [2] |
| --- | --- | --- |
| TAAATTGATATCGC | 0.0222 ± 0.012 | -0.0692 ± 0.048 |
| TAAATTGATATTGC C57A | -0.104 ± 0.063 | 0.461 ± 0.12 |
| TAAATTGATATTGC C57G | -0.05 ± 0.075 | 1.552 ± 0.015 |
| TAAATTGATATTGC C57T | -0.204 ± 0.0024 | 0.91 ± 0.032 |
| TAAATTGATATTGC C2T | -0.0194 ± 0.017 | 0.0698 ± 0.22 |
| TAAATTGATATTGC C2A | 0.0243 ± 0.04 | 0.336 ± 0.22 |
| TAAATTGATATTGC C2G | 0.0801 ± 0.019 | 0.363 ± 0.28 |
| TAAATTGATATTGC A35C | -0.0746 ± 0.015 | -0.0637 ± 0.3 |
| TAAATTGATATTGC A35T | -0.27 ± 0.02 | -0.45 ± 0.076 |
| TAAATTGATATTGC A35G | -0.559 ± 0.067 | -0.531 ± 0.13 |
| TAAATTGATATTGC G10C | -0.405 ± 0.069 | -1.81 ± 0.24 |
| TAAATTGATATTGC G10T | -0.7118 ± 0.001 | -1.93 ± 0.22 |
| TAAATTGATATTGC G10A | 0.115 ± 0.017 | -0.464 ± 0.17 |
| TAAATTGATAAAGC | -0.251 ± 0.025 | 0.6224 ± 0.0024 |
| TAAATTCTTATTGC | -0.485 ± 0.094 | 2.36 ± 0.24 |
| TAAATTGATATTGC A49T | -0.47 ± 0.16 | 0.117 ± 0.012 |
| TAAATTGATATTGC A49G | -0.49 ± 0.084 | -0.155 ± 0.12 |
| TAAATTGATATTGC A49C | -0.518 ± 0.15 | -0.614 ± 0.38 |
| TAAATTGATAATGC | 0.111 ± 0.029 | 0.354 ± 0.21 |

| Variant | relative integration efficiency (log2) [1] | relative integration efficiency (log2) [2] |
| --- | --- | --- |
| TAAATTGATATTGC A41T | -0.0667 ± 0.018 | -0.148 ± 0.022 |
| TAAATTGATATTGC A41G | -0.104 ± 0.45 | -0.399 ± 1.1 |
| TAAATTGATATTGC A41C | -0.815 ± 0.047 | -0.78 ± 0.23 |
| TAAATTGATATTGC A29T | -0.372 ± 0.011 | 0.436 ± 0.063 |
| TAAATTGATATTGC A29G | -0.169 ± 0.087 | -0.293 ± 0.074 |
| TAAATTGATATTGC A29C | -0.793 ± 0.055 | -0.254 ± 0.12 |
| TAAATTGATATTGC A56G | -0.248 ± 0.083 | 0.362 ± 0.33 |
| TAAATTGATATTGC A56C | -0.0165 ± 0.22 | 0.317 ± 0.21 |
| TAAATTGATATTGC A56T | -0.4 ± 0.052 | 0.0769 ± 0.005 |
| TAAATTGACATTGC | -0.167 ± 0.015 | 0.353 ± 0.12 |
| TAAATTGATATTGA | 0.138 ± 0.028 | 0.0994 ± 0.1 |
| TAAATTGATATTGC | -0.0034 ± 0.1 | -0.0165 ± 0.24 |
| TAAATTGATATTGC A58T | -0.281 ± 0.054 | 1.17 ± 0.41 |
| TAAATTGATATTGC A58C | -0.461 ± 0.11 | 1.05 ± 0.17 |
| TAAATTGATATTGC A58G | -0.236 ± 0.0068 | 1.32 ± 0.19 |
| TAAATACATATTGC | -0.637 ± 0.26 | 2.3 ± 0.041 |
| AAAATTGATATTGC | -0.0332 ± 0.012 | 0.998 ± 0.085 |
| TAAATTGATATTGC A47G | -0.0921 ± 0.17 | -0.453 ± 0.42 |
| TAAATTGATATTGC A47T | -0.574 ± 0.2 | -0.552 ± 0.16 |

| Variant | relative integration efficiency (log2) [1] | relative integration efficiency (log2) [2] |
| --- | --- | --- |
| TAAATTGATATTGC A47C | -0.409 ± 0.05 | -0.216 ± 0.54 |
| TAAAATGATATTGC | 0.0615 ± 0.025 | 0.274 ± 0.058 |
| TAAATCGATATTGC | -0.159 ± 0.022 | 0.237 ± 0.063 |
| TAAATTGATATTGC G26A | -0.553 ± 0.15 | -0.268 ± 0.011 |
| TAAATTGATATTGC G26T | -0.472 ± 0.11 | -0.0416 ± 0.43 |
| TAAATTGATATTGC G26C | -1.71 ± 0.29 | -1.36 ± 0.46 |
| TAAATTGAATAAGC | -0.554 ± 0.076 | 1.55 ± 0.079 |
| TAAATAGATATTGC | -0.222 ± 0.0045 | 1.53 ± 0.13 |
| TAAATTGATAATTA | 0.000518 ± 0.059 | 0.0298 ± 0.42 |
| TAAATTGATATTGC A23T | 1.42 ± 0.079 | 1.34 ± 0.053 |
| TAAATTGATATTGC A23C | 0.346 ± 0.047 | 0.198 ± 0.087 |
| TAAATTGATATTGC A23G | -0.0394 ± 0.13 | -0.227 ± 0.71 |
| TAAATTGATATTGC C36A | 0.40973 ± 0.00019 | 0.478 ± 0.0049 |
| TAAATTGATATTGC C36T | -0.172 ± 0.077 | -0.179 ± 0.053 |
| TAAATTGATATTGC C36G | -0.469 ± 0.0075 | -0.695 ± 0.23 |
| TAAATTGATATTGC A42T | 0.0512 ± 0.029 | -0.0993 ± 0.22 |
| TAAATTGATATTGC A42G | -0.807 ± 0.11 | -1.01 ± 0.016 |
| TAAATTGATATTGC A42C | -0.945 ± 0.052 | -0.708 ± 0.35 |

— the supplement of paper PMC10201428
